Results on one substance are retold here after article PMC3217864.

The test deals with CD91 (human (endogenous in PBMCs)) (UniProt Q07954).
UniProt Q07954, sequence (Q07954 20-4544): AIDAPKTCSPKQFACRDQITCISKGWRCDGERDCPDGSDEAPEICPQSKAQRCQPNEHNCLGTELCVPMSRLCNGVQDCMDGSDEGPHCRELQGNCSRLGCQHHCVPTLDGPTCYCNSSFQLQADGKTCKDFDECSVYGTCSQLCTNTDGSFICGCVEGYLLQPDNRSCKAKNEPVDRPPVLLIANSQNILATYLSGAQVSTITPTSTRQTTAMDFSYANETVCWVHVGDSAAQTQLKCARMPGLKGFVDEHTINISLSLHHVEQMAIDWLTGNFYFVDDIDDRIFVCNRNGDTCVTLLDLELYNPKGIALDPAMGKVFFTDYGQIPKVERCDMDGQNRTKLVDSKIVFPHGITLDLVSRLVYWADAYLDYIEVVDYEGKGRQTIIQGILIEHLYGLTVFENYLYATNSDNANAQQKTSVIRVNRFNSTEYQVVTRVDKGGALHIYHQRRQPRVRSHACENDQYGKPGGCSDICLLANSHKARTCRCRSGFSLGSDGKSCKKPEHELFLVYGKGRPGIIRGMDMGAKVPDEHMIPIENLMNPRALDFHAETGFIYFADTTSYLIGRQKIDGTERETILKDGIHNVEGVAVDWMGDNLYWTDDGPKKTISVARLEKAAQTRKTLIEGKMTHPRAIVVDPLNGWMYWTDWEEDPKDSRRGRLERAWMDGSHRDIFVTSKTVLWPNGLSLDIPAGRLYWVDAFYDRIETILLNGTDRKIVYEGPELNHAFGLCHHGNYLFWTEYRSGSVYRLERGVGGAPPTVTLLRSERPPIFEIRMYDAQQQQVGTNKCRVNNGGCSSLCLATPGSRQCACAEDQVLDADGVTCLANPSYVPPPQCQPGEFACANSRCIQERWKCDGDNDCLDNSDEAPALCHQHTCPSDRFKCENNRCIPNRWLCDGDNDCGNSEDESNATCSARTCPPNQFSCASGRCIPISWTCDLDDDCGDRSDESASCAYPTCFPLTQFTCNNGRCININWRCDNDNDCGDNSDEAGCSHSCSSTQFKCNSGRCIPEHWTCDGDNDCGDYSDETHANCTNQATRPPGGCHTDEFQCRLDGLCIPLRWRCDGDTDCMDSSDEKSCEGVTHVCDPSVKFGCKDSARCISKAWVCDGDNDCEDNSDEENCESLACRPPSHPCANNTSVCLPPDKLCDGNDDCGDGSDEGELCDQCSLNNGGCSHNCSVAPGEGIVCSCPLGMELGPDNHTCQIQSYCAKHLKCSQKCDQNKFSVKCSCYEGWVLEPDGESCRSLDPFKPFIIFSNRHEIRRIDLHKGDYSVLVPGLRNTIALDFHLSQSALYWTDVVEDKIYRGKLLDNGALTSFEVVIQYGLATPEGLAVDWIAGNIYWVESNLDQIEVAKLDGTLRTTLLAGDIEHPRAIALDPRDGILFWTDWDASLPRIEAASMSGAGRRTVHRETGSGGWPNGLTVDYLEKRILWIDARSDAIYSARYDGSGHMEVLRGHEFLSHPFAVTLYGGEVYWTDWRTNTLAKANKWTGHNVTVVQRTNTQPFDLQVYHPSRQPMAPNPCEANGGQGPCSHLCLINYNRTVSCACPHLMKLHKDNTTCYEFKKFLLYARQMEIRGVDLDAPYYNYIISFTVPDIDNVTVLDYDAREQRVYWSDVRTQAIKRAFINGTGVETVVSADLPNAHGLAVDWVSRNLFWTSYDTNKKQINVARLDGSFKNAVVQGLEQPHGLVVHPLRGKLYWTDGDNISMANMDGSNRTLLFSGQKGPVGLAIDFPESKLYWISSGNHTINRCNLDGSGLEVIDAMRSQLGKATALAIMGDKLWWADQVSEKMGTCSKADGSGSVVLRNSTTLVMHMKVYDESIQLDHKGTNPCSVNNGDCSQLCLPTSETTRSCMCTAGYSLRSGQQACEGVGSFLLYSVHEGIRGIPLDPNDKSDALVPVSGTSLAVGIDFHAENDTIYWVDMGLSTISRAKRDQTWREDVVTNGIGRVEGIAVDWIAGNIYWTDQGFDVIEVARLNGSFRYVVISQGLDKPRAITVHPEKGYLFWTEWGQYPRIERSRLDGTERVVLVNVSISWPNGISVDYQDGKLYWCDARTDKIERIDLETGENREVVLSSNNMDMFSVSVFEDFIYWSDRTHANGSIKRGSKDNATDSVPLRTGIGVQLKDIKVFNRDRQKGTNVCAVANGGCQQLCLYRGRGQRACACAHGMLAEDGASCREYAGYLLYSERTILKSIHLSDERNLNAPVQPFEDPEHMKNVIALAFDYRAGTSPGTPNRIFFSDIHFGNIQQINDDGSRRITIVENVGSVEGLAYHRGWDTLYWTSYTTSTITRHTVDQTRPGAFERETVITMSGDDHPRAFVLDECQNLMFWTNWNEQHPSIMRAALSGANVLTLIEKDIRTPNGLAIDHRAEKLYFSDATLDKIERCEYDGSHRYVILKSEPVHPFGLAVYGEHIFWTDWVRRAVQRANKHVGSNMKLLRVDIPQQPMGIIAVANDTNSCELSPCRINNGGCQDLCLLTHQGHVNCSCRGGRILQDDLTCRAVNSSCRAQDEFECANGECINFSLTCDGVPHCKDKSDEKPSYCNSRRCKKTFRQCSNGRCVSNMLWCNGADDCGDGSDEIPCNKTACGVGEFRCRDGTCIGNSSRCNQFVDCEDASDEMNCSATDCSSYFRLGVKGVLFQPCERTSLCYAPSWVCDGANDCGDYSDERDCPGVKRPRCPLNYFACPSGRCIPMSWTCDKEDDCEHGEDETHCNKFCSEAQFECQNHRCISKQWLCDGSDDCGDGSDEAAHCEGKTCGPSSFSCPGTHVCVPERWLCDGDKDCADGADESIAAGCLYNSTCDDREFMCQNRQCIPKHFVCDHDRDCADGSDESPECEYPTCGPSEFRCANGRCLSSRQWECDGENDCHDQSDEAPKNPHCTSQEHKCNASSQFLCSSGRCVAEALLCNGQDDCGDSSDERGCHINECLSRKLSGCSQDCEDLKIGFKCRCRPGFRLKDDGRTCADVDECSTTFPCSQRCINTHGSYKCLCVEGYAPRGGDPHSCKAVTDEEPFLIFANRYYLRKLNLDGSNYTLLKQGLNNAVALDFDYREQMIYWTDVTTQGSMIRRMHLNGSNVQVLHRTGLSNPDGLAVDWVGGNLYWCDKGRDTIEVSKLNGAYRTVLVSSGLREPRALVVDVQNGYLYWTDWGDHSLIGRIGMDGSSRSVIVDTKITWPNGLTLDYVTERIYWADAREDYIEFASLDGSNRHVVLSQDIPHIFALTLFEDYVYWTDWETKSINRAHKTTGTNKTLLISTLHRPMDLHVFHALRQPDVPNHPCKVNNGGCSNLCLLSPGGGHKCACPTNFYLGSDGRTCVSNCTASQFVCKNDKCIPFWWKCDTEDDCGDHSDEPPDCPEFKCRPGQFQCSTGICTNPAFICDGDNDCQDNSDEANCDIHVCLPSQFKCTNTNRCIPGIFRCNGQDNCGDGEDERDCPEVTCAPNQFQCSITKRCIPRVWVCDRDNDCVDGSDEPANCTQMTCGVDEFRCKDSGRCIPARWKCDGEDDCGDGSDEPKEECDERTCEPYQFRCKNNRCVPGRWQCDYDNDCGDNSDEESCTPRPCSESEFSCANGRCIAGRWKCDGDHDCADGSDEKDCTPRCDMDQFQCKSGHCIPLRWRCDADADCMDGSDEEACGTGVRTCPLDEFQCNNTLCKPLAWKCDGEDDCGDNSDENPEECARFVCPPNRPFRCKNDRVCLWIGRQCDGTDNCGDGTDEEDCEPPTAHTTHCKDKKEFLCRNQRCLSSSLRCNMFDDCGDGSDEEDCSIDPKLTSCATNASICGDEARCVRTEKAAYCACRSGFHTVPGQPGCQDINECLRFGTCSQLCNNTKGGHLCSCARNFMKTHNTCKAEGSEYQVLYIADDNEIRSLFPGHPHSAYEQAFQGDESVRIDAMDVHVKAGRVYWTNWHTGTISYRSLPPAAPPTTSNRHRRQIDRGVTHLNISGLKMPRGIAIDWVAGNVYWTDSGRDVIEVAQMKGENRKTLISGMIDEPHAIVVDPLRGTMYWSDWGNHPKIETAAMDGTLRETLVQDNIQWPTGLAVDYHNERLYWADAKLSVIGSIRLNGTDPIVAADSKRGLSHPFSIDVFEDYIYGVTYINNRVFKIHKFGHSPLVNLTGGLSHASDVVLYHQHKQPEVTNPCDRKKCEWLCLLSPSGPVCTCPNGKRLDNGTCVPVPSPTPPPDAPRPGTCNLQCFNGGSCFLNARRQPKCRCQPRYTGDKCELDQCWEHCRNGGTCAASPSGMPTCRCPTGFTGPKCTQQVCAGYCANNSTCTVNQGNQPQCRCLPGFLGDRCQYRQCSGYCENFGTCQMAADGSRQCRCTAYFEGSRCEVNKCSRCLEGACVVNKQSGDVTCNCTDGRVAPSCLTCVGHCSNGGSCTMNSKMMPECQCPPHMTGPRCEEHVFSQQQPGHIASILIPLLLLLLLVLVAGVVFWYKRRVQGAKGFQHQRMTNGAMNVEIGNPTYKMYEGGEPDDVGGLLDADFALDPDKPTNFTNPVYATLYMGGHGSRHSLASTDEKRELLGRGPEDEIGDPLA

With “HSP70/CMVpp65(495-503)-peptide complex (from UniProt P0DMV8 1-641)”, the reduction of proliferation of CD8+ T cells (CFSE dilution, 4 days) in PBMCs stimulated with 10 μg/ml HSP70/CMV-PC after 1 h pulse with 500 μg/ml α2-macroglobulin (A2M), the natural ligand of CD91 stood at 86.9%.
